# In patent publication US20240117022A1 (GANYMED PHARMACEUTICALS, published 2024):
# B1: ch-43A11 (antibody, V domains shown)
# VH: QVQLQQSGAELMKPGASVKISCKATGYTFSSYWIEWVKQRPGHGLEWIGEILPGSGSTNYNEKFKGKATFTADTSSNTAYMQLSSLTSEDSAVYYCARYDYPWFAYWGQGTLVTVSA
# VL: QIVLTQSPAIMSASPGEKVTITCSASSSVSYMHWFQQKPGTSPKLWIYSTSNLASGVPARFSGSGSGTSYSLTISRMEAEDAATYYCQQRSSYPPTFGGGTKLEIKR
# notes: Mouse/human chimeric, human gamma-1 and kappa constant regions; also called chimeric 43A11
# B2: ch-166E2 (antibody, V domains shown)
# VH: QVQLQQSGPELVKPGASVKMSCKASGYTFTDYVISWVKQRTGQGLEWIGEIYPGSGSTYYNEKFKGKATLTADKSSNTAYMQLSSLTSEDSAVYFCARGVLLRAMDYWGQGTSVTVSS
# VL: DIVMSQSPSSLAVSAGEKVTMSCKSSQSLLNSRTRKNYLAWYQQKPGQSPKLLIYWASTRESGVPDRFTGSGSGTDFTLTISSVQAEDLAVYYCKQSYNLYTFGGGTKLEIKR
# notes: Mouse/human chimeric, human gamma-1 and kappa constant regions; also called chimeric 166E2
# B3: 43A11 (antibody, IgG2a, V domains shown)
# VH: B1 VH
# VL: QIVLTQSPAIMSASPGEKVTITCSASSSVSYMHWFQQKPGTSPKLWIYSTSNLASGVPARFSGSGSGTSYSLTISRMEAEDAATYYCQQRSSYPPTFGGGTKLEIK
# notes: mouse monoclonal IgG2a, kappa; also called 182-D1106-062; DSM ACC2742
# B4: 166E2 (antibody, IgG3, V domains shown)
# VH: B2 VH
# VL: DIVMSQSPSSLAVSAGEKVTMSCKSSQSLLNSRTRKNYLAWYQQKPGQSPKLLIYWASTRESGVPDRFTGSGSGTDFTLTISSVQAEDLAVYYCKQSYNLYTFGGGTKLEIK
# notes: mouse monoclonal IgG3, kappa; also called 182-D1106-308
# B5: 125E1 (antibody, IgG2a, V domains shown)
# VH: QVQLQQSGAELARPGASVKLSCKASGYTFTDYYINWVKQRTGQGLEWIGEIYPGSGNTYYNEKFKGKATLTADKSSSTAYMQLSSLTSEDSAVYFCARSYGAFDYWGQGTTLTVSS
# VL: DIVMTQSQKFMSTSVGDRVSITCKASQNVRTAVAWYQQKPGQSPKALIYLASNRHTGVPDRFTGSGSGTDFTLTISNVQSEDLADYFCLQHWNYPLTFGGGTKLEIK
# notes: mouse monoclonal IgG2a, kappa; also called 182-D1106-279; DSM ACC2808
# B6: 163E12 (antibody, IgG3, V domains shown)
# VH: QIQLVQSGPELKKPGETVKISCKASGYTFTNYGMNWVKQAPGKGLKWMGWINTNTGEPTYAEEFKGRFAFSLETSASTAYLQINNLKNEDTATYFCARLGFGNAMDYWGQGTSVTVSS
# VL: DIVMTQSPSSLTVTAGEKVTMSCKSSQSLLNSGNQKNYLTWYQQKPGQPPKLLIYWASTRESGVPDRFTGSGSGTDFTLTISSVQAEDLAVYYCQNDYSYPLTFGAGTKLELK
# notes: mouse monoclonal IgG3, kappa; also called 182-D1106-294; DSM ACC2809
# B7: ch-125E1 (antibody, V domains shown)
# VH: B5 VH
# VL: DIVMTQSQKFMSTSVGDRVSITCKASQNVRTAVAWYQQKPGQSPKALIYLASNRHTGVPDRFTGSGSGTDFTLTISNVQSEDLADYFCLQHWNYPLTFGGGTKLEIKR
# notes: Mouse/human chimeric, human gamma-1 and kappa constant regions; also called chimeric 125E1
# B8: ch-163E12 (antibody, V domains shown)
# VH: B6 VH
# VL: DIVMTQSPSSLTVTAGEKVTMSCKSSQSLLNSGNQKNYLTWYQQKPGQPPKLLIYWASTRESGVPDRFTGSGSGTDFTLTISSVQAEDLAVYYCQNDYSYPLTFGAGTKLELKR
# notes: Mouse/human chimeric, human gamma-1 and kappa constant regions; also called chimeric 163E12
# Key:
# human CLD18A1 [1] = molecular target: T1, human CLD18A1 (human, UniProt P56856 1-261); assay: flow cytometry on HEK293-CLD18A1 cells
# T1 construct: Expressed on transfected HEK293 or CHO cells; also called claudin 18 splice variant 1; NP_057453
# human CLD18A1 [2] = molecular target: T1, human CLD18A1; assay: summary of Example 10
# murine CLD18A1 [3] = molecular target: T2, murine CLD18A1 (mouse, UniProt P56857 1-264); assay: summary of Example 10
# T2 construct: Transiently expressed on HEK293 cells; also called mouse CLD18A1; NP_062789
# murine CLD18A1 [4] = molecular target: T2, murine CLD18A1; assay: overview table of murine antibodies
# human CLD18A1 [5] = molecular target: T1, human CLD18A1; assay: overview table of murine antibodies
# human CLD18A1 [6] = molecular target: T1, human CLD18A1; assay: overview table of chimeric antibodies
binder,measurement,setting,value
B1,binding result,human CLD18A1 [1],no binding
B2,binding result,human CLD18A1 [1],no binding
B3,binding result,human CLD18A1 [2],no binding
B4,binding result,murine CLD18A1 [3],no binding
same,binding result,human CLD18A1 [2],no binding
B5,binding result,murine CLD18A1 [4],no binding
same,binding result,human CLD18A1 [5],no binding
B6,binding result,murine CLD18A1 [4],no binding
same,binding result,human CLD18A1 [5],no binding
B7,binding result,human CLD18A1 [6],no binding
B8,binding result,human CLD18A1 [6],no binding
